How the values were obtained:
[1] = biological target: MBP-MCM8-9 complex, amylose bead-bound (human, UniProt Q9NXL9-1;Q9UJA3-1); experiment: pull-down
[2] = biological target: recombinant MCM8-9 complex, purified (human, UniProt Q9NXL9-1;Q9UJA3-1); experiment: native gel or EMSA
Sequence of recombinant MCM8-9 complex, purified (Q9NXL9 whole entry, chain 1 of 2): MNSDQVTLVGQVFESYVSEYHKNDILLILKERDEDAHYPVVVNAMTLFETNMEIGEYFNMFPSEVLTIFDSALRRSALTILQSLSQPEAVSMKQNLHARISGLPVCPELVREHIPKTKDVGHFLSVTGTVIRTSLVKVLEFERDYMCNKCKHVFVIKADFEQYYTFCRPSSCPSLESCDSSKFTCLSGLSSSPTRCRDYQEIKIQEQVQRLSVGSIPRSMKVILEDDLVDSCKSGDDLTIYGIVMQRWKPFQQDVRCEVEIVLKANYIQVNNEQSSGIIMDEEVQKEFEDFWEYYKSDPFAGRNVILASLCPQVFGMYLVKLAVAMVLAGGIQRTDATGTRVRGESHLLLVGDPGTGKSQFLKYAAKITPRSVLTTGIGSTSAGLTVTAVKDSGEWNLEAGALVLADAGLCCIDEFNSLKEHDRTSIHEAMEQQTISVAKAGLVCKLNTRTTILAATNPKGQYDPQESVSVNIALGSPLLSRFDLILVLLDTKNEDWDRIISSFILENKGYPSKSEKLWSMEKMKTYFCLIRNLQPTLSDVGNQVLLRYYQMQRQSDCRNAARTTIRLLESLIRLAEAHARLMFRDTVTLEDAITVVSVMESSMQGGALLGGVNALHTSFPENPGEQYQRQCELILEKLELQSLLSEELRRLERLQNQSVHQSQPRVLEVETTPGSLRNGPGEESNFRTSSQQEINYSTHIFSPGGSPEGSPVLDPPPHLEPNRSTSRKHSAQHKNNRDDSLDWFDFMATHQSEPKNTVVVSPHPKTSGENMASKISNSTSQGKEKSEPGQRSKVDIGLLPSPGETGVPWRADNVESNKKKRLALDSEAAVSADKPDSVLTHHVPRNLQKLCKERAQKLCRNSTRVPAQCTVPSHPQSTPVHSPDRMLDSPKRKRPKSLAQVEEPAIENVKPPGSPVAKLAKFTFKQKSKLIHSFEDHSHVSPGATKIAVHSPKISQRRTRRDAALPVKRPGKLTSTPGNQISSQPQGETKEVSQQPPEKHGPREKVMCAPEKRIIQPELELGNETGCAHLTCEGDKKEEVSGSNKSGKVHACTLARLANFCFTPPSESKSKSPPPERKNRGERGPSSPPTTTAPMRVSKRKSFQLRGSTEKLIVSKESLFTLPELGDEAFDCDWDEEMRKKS
Sequence of recombinant MCM8-9 complex, purified (Q9UJA3 whole entry, chain 2 of 2): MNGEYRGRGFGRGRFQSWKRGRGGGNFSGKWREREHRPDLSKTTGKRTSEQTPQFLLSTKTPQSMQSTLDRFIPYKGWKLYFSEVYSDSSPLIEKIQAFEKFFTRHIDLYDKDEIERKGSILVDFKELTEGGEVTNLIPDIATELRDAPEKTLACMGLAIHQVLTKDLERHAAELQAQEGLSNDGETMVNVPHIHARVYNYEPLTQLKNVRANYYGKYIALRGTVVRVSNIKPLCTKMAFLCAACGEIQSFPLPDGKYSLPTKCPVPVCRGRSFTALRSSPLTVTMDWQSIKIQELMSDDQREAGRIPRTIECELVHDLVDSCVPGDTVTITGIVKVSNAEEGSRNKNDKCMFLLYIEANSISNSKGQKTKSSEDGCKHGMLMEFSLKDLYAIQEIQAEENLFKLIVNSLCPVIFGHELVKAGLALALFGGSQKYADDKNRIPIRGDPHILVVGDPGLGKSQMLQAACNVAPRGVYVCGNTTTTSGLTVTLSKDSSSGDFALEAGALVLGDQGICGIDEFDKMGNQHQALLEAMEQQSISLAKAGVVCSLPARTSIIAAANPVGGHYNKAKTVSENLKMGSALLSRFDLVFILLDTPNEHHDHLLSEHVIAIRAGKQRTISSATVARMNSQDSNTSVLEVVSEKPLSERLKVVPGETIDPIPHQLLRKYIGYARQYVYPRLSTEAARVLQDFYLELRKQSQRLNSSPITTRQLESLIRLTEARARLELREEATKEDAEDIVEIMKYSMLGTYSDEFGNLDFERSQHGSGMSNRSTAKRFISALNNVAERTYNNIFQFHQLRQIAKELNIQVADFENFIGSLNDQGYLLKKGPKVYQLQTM

Sequence of MBP-MCM8-9 complex, amylose bead-bound (Q9NXL9 whole entry, chain 1 of 2): as the sequence (Q9NXL9 whole entry, chain 1 of 2) above
Sequence of MBP-MCM8-9 complex, amylose bead-bound (Q9UJA3 whole entry, chain 2 of 2): as the sequence (Q9UJA3 whole entry, chain 2 of 2) above

B1: MCM8IP-FLAG WT (natural protein)
chain: MACSLQKLFAVEEEFEDEDFLSAVEDAENRFTGSLPVNAGRLRPVSSRPQETVQAQSSRLLLLHPTAPSEALGLPDLDLCLPASSTPSADSRPSCIGAAPLRPVSTSSSWIGNQRRVTVTEVLRETARPQSSALHPLLTFESQQQQVGGFEGPEQDEFDKVLASMELEEPGMELECGVSSEAIPILPAQQREGSVLAKKARVVDLSGSCQKGPVPAIHKAGIMSAQDESLDPVIQCRTPRPPLRPGAVGHLPVPTALTVPTQQLHWEVCPQRSPVQALQPLQAARGTIQSSPQNRFPCQPFQSPSSWLSGKAHLPRPRTPNSSCSTPSRTSSGLFPRIPLQPQAPVSSIGSPVGTPKGPQGALQTPIVTNHLVQLVTAASRTPQQPTHPSTRAKTRRFPGPAGILPHQQSGRSLEDIMVSAPQTPTHGALAKFQTEIVASSQASVEEDFGRGPWLTMKSTLGLDERDPSCFLCTYSIVMVLRKAALKQLPRNKVPNMAVMIKSLTRSTMDASVVFKDPTGEMQGTVHRLLLETCQNELKPGSVLLLKQIGVFSPSLRNHYLNVTPNNLVHIYSPDSGDGSFLKPSQPFPKDSGSFQHDVAAKPEEGFRTAQNLEAEASPEEELPEADDLDGLLSELPEDFFCGTSS
B1: binds [1]; binds [2].

Source: doi:10.1101/751974 (bioRxiv, 2019)
